What was measured:
[1] = molecular target: pericentrin (Xenopus egg extract) (Xenopus laevis (endogenous in egg extracts)); experiment: quantitative Western blot; conditions: scale: γ-tubulin molecules per pericentrin molecule
[2] = molecular target: γ-tubulin (Xenopus egg extract) (Xenopus laevis (endogenous in egg extracts)) (UniProt P23330); experiment: co-IP

Substance	stoichiometry N [1]	percent of pericentrin co-depleted with γ-tubulin [2]
γ-tubulin (Xenopus egg extract) (from UniProt P23330 1-451) (natural protein)	30	–
pericentrin (Xenopus egg extract) (natural protein)	–	85 to 95%

— publication PMC2132723
